Positions count from the first letter of the chain named. Names and notes keep the numbering of the source.
Assays:
[1] = target: Fluc-Ec2 (E. coli (virulence plasmid)) (UniProt Q6J5N4); assay: SEC-MALS; SEC with static light scattering, refractive index and UV detectors; Superdex-75 in 400 mM NaF, 10 mM MES pH 6.5, 5 mM DM (detergent micelles)
[2] = target: the molecule itself; assay: single-molecule TIRF photobleaching; Cy5-labeled protein reconstituted at very low density (0.15 µg/mg lipid) in liposomes adhered to glass; counting of bleaching steps
[3] = target: the molecule itself; assay: cross-linking; ~0.1 mg/ml purified protein in 20 mM MOPS pH 7.5, 100 mM NaCl, 10 mM NaF, 5 mM DM with 0.125% glutaraldehyde for 5-120 min; 15% SDS-PAGE

Molecule: Fluc-Ec2 (from UniProt Q6J5N4 1-126) (natural protein)
- stoichiometry N [1]: 2

B1: Fluc-Bpe R29C labeled with Cy5-maleimide (natural protein)
chain: MLTYAPLNFIAIGIGATLGAWLRWVLGLCLNGAGWPWGTLTANLVGGYLIGVMVALIASHPEWPAWIRLAAVTGFLGGLTTFSTFSAETVDMLERGVYATAAAYAGASLAGSLAMTGLGLATVRLLLR
modifications: Cy5-maleimide on the unique cysteine R29C (labeling efficiency 72%)
notes: Fluc homologue Bpe from Bordatella pertussis (so in the source), NCBI NP_879990.1, naturally cysteine-free, with a single cysteine substitution; source: E. coli BL21-DE3, purified, labeled with Cy5-maleimide, reconstituted into liposomes at 0.15 µg/mg lipid
- stoichiometry N [2]: 2

B2: Fluc-Bpe R29K (natural protein)
chain: B1 chain with C29K
notes: Fluc homologue Bpe from Bordatella pertussis (so in the source), NCBI NP_879990.1, lysine-less, with a single lysine in loop 1
- binding result [3]: binds

B3: Fluc-Bpe T3C labeled with Cy5-maleimide (natural protein)
chain: B1 chain with T3C, C29R
modifications: Cy5-maleimide on the unique cysteine T3C (labeling efficiency 62%)
notes: as for B1
- binding result [2]: binds

B4: Fluc-Bpe R95K (natural protein)
chain: B1 chain with C29R, R95K
notes: Fluc homologue Bpe from Bordatella pertussis (so in the source), NCBI NP_879990.1, lysine-less, with a single lysine in loop 3
- binding result [3]: binds
